Laboratory results as given in PMC7048804.
One block for each binder: values may come before it.

Experiments:
[1] = target: ERCC1 (human) (UniProt P07992)
[2] = target: XPF–ERCC1 complex (human) (UniProt Q92889)
[3] = target: XPF–ERCC1 mutant 323–326Δ^XPF (human) (UniProt Q92889)

UniProt P07992, sequence (P07992 other isoform, or with tags, fused parts or gaps): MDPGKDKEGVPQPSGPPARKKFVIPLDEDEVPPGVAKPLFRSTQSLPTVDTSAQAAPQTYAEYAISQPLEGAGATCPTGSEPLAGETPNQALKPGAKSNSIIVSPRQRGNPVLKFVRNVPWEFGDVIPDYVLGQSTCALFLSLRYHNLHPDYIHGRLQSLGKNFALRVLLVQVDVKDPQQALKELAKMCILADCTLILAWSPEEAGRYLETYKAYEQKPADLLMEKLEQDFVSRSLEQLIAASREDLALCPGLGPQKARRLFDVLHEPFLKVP

catalytic efficiency kcat/Km of XPF(S312A)–ERCC1 on a stem–loop DNA substrate, real-time fluorescence incision assay (wild type: 1.73) [1]: 4.42e+07 M⁻¹ s⁻¹
B1: XPF S312A (enzyme)
chain: MESGQPARRIAMAPLLEYERQLVLELLDTDGLVVCARGLGADRLLYHFLQLHCHPACLVLVLNTQPAEEEYFINQLKIEGVEHLPRRVTNEITSNSRYEVYTQGGVIFATSRILVVDFLTDRIPSDLITGILVYRAHRIIESCQEAFILRLFRQKNKRGFIKAFTDNAVAFDTGFCHVERVMRNLFVRKLYLWPRFHVAVNSFLEQHKPEVVEIHVSMTPTMLAIQTAILDILNACLKELKCHNPSLEVEDLSLENAIGKPFDKTIRHYLDPLWHQLGAKTKSLVQDLKILRTLLQYLSQYDCVTFLNLLEALRATEKAFGQNSGWLFLDSSTSMFINARARVYHLPDAKMSKKEKISEKMEIKEGEETKKELVLESNPKWEALTEVLKEIEAENKESEALGGPGQVLICASDDRTCSQLRDYITLGAEAFLLRLYRKTFEKDSKAEEVWMKFRKEDSSKRIRKSHKRPKDPQNKERASTKERTLKKKKRKLTLTQMVGKPEELEEEGDVEEGYRREISSSPESCPEEIKHEEFDVNLSSDAAFGILKEPLTIIHPLLGCSDPYALTRVLHEVEPRYVVLYDAELTFVRQLEIYRASRPGKPLRVYFLIYGGSTEEQRYLTALRKEKEAFEKLIREKASMVVPEEREGRDETNLDLVRGTASADVSTDTRKAGGQEQNGTQQSIVVDMREFRSELPSLIHRRGIDIEPVTLEVGDYILTPEMCVERKSISDLIGSLNNGRLYSQCISMSRYYKRPVLLIEFDPSKPFSLTSRGALFQEISSNDISSKLTLLTLHFPRLRILWCPSPHATAELFEELKQSKPQPDAATALAITADSETLPESEKYNPGPQDFLLKMPGVNAKNCRSLMHHVKNIAELAALSQDELTSILGNAANAKQLYDFIHTSFAEVVSKGKGKK

catalytic efficiency kcat/Km of XPF–ERCC1–SLX4^NTD on a stem–loop DNA substrate, real-time fluorescence incision assay (XPF–ERCC1 alone: 1.73) [2]: 1.73e+08 M⁻¹ s⁻¹
catalytic efficiency kcat/Km of XPF(323–326 Δ)–ERCC1–SLX4^NTD on a stem–loop DNA substrate, real-time fluorescence incision assay [3]: 5e+06 M⁻¹ s⁻¹
B2: SLX4^NTD (residues 1–758) (domain or fragment)
chain: MKLSVNEAQLGFYLGSLSHLSACPGIDPRSSEDQPESLKTGQMMDESDEDFKELCASFFQRVKKHGIKEVSGERKTQKAASNGTQIRSKLKRTKQTATKTKTLQGPAEKKPPSGSQAPRTKKQRVTKWQASEPAHSVNGEGGVLASAPDPPVLRETAQNTQTGNQQEPSPNLSREKTRENVPNSDSQPPPSCLTTAVPSPSKPRTAQLVLQRMQQFKRADPERLRHASEECSLEAAREENVPKDPQEEMMAGNVYGLGPPAPESDAAVALTLQQEFARVGASAHDDSLEEKGLFFCQICQKNLSAMNVTRREQHVNRCLDEAEKTLRPSVPQIPECPICGKPFLTLKSRTSHLKQCAVKMEVGPQLLLQAVRLQTAQPEGSSSPPMFSFSDHSRGLKRRGPTSKKEPRKRRKVDEAPSEDLLVAMALSRSEMEPGAAVPALRLESAFSERIRPEAENKSRKKKPPVSPPLLLVQDSETTGRQIEDRVALLLSEEVELSSTPPLPASRILKEGWERAGQCPPPPERKQSFLWEGSALTGAWAMEDFYTARLVPPLVPQRPAQGLMQEPVPPLVPPEHSELSERRSPALHGTPTAGCGSRGPSPSASQREHQALQDLVDLAREGLSASPWPGSGGLAGSEGTAGLDVVPGGLPLTGFVVPSQDKHPDRGGRTLLSLGLLVADFGAMVNNPHLSDVQFQTDSGEVLYAHKFVLYARCPLLIQYVNNEGFSAVEDGVLTQRVLLGDVSTEAARTFLHYLYTA
